# From PMC3625871
# T1: AtVOZ2m (Arabidopsis thaliana, UniProt Q9SLB9 1-450, C249A;H253A)
# T1 sequence: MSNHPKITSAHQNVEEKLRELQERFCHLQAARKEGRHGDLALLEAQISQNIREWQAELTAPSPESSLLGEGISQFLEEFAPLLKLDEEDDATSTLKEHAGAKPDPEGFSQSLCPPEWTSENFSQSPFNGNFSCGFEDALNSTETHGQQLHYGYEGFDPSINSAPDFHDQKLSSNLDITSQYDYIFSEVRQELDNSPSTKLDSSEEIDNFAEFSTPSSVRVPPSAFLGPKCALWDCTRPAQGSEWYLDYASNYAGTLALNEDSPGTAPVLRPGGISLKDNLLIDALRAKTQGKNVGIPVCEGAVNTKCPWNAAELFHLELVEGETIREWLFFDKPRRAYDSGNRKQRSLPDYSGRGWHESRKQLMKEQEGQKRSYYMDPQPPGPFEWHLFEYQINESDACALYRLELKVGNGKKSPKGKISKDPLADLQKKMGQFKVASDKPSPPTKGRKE
# B1: pMOS3 (dsDNA)
# DNA 1: GACGTCCGGCGCAGCGTTTATCAGACGCTGGGATTAAAACA
# DNA 2: TGTTTTAATCCCAGCGTCTGATAAACGCTGCGCCGGACGTC
# Biological target: T1, AtVOZ2m
# Assay: EMSA
binder,measurement,value
B1,binding result,no binding
